Test results reported in the RNAGym collection of RNA variant scans (doi:10.7554/elife.80360).

B1: HDV Ribozyme (parent)
chain: GGCCGGCAUGGUCCCAGCCUCCUCGCUGGCGCCGGCUGGGCAACAUUCCGAGGGGACCGUCCCCUCGGUAAUGGCGAAUGGGACCCA

Variants of: B1
Assay: self-cleavage, relative activity (ratio to wild type); higher = more cleavage; co-transcriptional

Variant	self-cleavage
C24A C41U	0.354
A8C C32A	0.119
C57G C85A	0.935
U27C A42U	0.475
C22U G81C	0.237
U37A C58A	0.225
C49A A70U	0.812
U23A G76A	0.978
A45C G68A	0.686
G40A A51U	0.844
G29U G40A	0.0955
U12C U37C	0.35
G25A C30G	0
G17C G82A	0.147
G31A A51C	0.396
A8C G73C	0.115
C13U A51C	0.997
U27G U65A	1.03
U23C C36G	0.125
C41U C63G	0.739
A78U A87C	0.31
G28U A71U	0.246
U69A C86G	1.09
G11A G73A	0.124

Variant	self-cleavage
C22A A77C	0.0378
G76A A83C	0.539
C44G G59U	0.81
G11C G17A	0.231
G40A A42C	0.543
C14A G52U	1.03
C18A C84G	0.0437
C18A A70C	0.128
C21A C63A	0.0314
C62G A78U	0.297
C3G C86G	1.14
C32G U47C	0.0852
G50U G52A	0.799
U9G A16G	1.42
C61A U65G	0.92
G55U U72G	0.652
C18A G35U	0.0604
A8U C26A	0.997
G1A C19U	0.101
C14G U47C	0.604
C19A G54A	0.0536
C18G U65C	0.175
G50A A70C	0.763
C64G G68A	0.338

Variant	self-cleavage
A16G A77U	0.266
U60G C63G	0.293
U12G G54U	0.793
U23C G28C	0.0639
C15A C19A	0.147
C30A C64G	0.485
U47A G73C	0.665
G17U U27A	0.486
A77U U79C	0.0811
G35C U37A	0
G29A G67U	0.231
G38A C48U	0.115
C24G C58A	0.121
U23A G38C	0.192
U47G A83U	0.525
A45G U47A	1.13
C18G G38A	0.0978
U46G C64G	0.525
C44G G82C	0.0504
G76U G81U	0.462
U27G G38A	0.128
C30A U46A	0.147
G2C G67A	0.0449
C7A U47C	0.277

Variant	self-cleavage
G53C G82A	0.383
C21U G35U	0.0804
C13U G31A	0.131
C18G A56G	0
G28A C63G	0.148
G17C U60A	0.575
C21A C62U	0.0519
G1A C7G	0.0405
C44A G59U	0.776
C13U G52C	0.639
G1A G67A	0.0665
U20G C32U	0.0519
C33A	0.29
A8G U72C	0.293
C63A A78G	0.404
G52C C57A	0.817
U12C U37G	0.332
U9C U69A	1.02
C4U C33U	0.612
C4U C7G	0
C57A C84U	0.935
U46G C58G	0.89
G1U U69C	0.259
U12A G82C	0.302

Variant	self-cleavage
C19G G76U	0.0791
G54A C75G	0.185
U37C G54U	1.02
U23A G31U	0.271
G5C G73A	0.0554
A16C A70U	0.415
C26A G39A	0.234
C7U A70U	0.748
A8C U69G	0.712
G35U U69G	0.302
A45U U60A	0.723
G10U U12A	0.0831
C21G A42G	0.0573
U69G C85A	1.18
G55A U69G	0.942
G25A G67U	0.401
U27A G29U	0
G10U G67U	0.819
A42G C85A	0.745
C7U U23A	0.923
C26U C63U	0.943
U47A C58G	0.855
C58U C75U	0.302
U37G G82C	0.128

Variant	self-cleavage
C22U A87G	0.737
A71G A87G	1.06
C7G G80U	0.0462
C24G C30U	0.0712
A43U C57A	0.69
G52U U72C	0.426
C32A C48A	0.116
A51U C84U	0.716
C26A G81C	0.193
C30G C58U	0.0906
C48G C63A	0.435
U12G A71C	0.712
U9A U12G	1.06
G11C G39C	0.0489
G38C G76U	0.47
C58A A71U	1.05
G1C C61U	0.185
C19A G55A	0.0906
C26U C64A	0.979
A42U C48A	0.485
A51G C62G	0.739
C4G G28U	0
C36U U47C	0.467
G29U A70C	0.0791

Variant	self-cleavage
G55A U60A	0.99
C13U G80C	0.0332
G2U C57A	0.156
C19U G35C	0.0831
G25A A51C	0.213
U27A G59A	0.919
G11U A70G	0.201
U27A G39A	0.356
G35C G55A	0.342
G1A C85U	0.0755
U20C C64A	0.145
G50U G68C	0.465
C66A A83G	0.641
C24A C30U	0.0723
G6C U20C	0.0923
G25A A45G	0.332
G2C G80C	0.154
G1C C15A	0
G28A A56G	0.135
C7U G10U	0.374
C13U U72C	0.252
A45G C86G	0.95
C41U A78C	0.178
